Several values for one entry are separate records, joined by “and”; a condition that tells them apart may be missing. Equal values may be shown once. Read-outs that look alike come from different tables or passages of the source.
Assays:
[1] = target: CD24(27-56aa)-GST NEOX-4 (human); experiment: ELISA
[2] = target: CD24(27-56aa)-GST NEOX-4 (human); experiment: ELISA; remark: listed apart in the source

Sequence of CD24(27-56aa)-GST NEOX-4 (human) (chain, as listed by the source): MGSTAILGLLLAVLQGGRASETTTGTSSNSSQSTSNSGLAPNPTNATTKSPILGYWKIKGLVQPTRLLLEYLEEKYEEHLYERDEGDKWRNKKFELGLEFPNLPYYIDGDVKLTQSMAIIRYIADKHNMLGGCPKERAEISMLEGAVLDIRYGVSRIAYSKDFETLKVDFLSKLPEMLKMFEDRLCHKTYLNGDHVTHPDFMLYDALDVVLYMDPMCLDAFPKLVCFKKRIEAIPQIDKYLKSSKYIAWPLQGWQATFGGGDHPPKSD

Binder | EC50 [1] | EC50 [2]
huG14-115 (antibody, V domains shown) VH: EVQLVESGGGLVKPGGSLRLSCAASGLTFSNYWMNWVRQAPGKGLEWVALIRLYSDNYAIHYAESVKGRFTISRDDSKSTVYLQMNSLKTEDTAVYYCTTGTDYWGQGTTVTVSS VL: not shown | 12.9 ng/mL | –
huG14-117 (antibody, V domains shown) VH: EVQLVESGGGLVKPGGSLRLSCAASGLTFSNYWMNWVRQAPGKGLEWVALIRLYSDNYAIHYAESVKGRFTISRDDSKSTVYLQMNSLKTEDTAVYYCTTGTDYWGQGTTVTVSS VL: not shown | 7.27 ng/mL | –
huG14-116 (antibody, V domains shown) VH: EVQLVESGGGLVKPGGSLRLSCAASGLTFSNYWMNWVRQAPGKGLEWVALIRLYSDNYAIHYAESVKGRFTISRDDSKSTVYLQMNSLKTEDTAVYYCTTGTDYWGQGTTVTVSS VL: not shown | 11.2 ng/mL | –
huG14-126 (antibody, V domains shown) VH: EVQLVESGGGLVKPGGSLRLSCAASGLTFSNYWMNWVRQAPGKGLEWVALIRLYSDNYAIHYAESVKGRFTISRDDSKSTVYLQMNSLKTEDTAVYYCTTGTDNWGQGTTVTVSS VL: not shown | 3.93 ng/mL | –
huG14-113 (antibody, V domains shown) VH: EVQLVESGGGLVKPGGSLRLSCAASGLTFSNYWMNWVRQAPGKGLEWVALIRLYSDNYAIHYAESVKGRFTISRDDSKSTVYLQMNSLKTEDTAVYYCTTGTDYWGQGTTVTVSS VL: not shown | 11.9 ng/mL | –
huG14-112 (antibody, V domains shown) VH: EVQLVESGGGLVKPGGSLRLSCAASGLTFSNYWMNWVRQAPGKGLEWVALIRLYSDNYAIHYAESVKGRFTISRDDSKSTVYLQMNSLKTEDTAVYYCTTGTDYWGQGTTVTVSS VL: not shown | 12.1 ng/mL | –
huG14-114 (antibody, V domains shown) VH: EVQLVESGGGLVKPGGSLRLSCAASGLTFSNYWMNWVRQAPGKGLEWVALIRLYSDNYAIHYAESVKGRFTISRDDSKSTVYLQMNSLKTEDTAVYYCTTGTDYWGQGTTVTVSS VL: not shown | 10.4 ng/mL | –
huG14-129 (antibody, V domains shown) VH: EVQLVESGGGLVKPGGSLRLSCAASGLTFSNYWMNWVRQAPGKGLEWVALIRLYSDNYAIHYAESVKGRFTISRDDSKSTVYLQMNSLKTEDTAVYYCTTGTDNWGQGTTVTVSS VL: not shown | 4.09 ng/mL | –
huG14-121 (antibody, V domains shown) VH: EVQLVESGGGLVKPGGSLRLSCAASGLTFSNYWGNWVRQAPGKGLEWVALIRLYSDNYAIHYAESVKGRFTISRDDSKSTVYLQMNSLKTEDTAVYYCTTGTDYWGQGTTVTVSS VL: not shown | 7.37 ng/mL and 7.04 ng/mL | –
huG14-123 (antibody, V domains shown) VH: EVQLVESGGGLVKPGGSLRLSCAASGLTFSNYWGNWVRQAPGKGLEWVALIRLYSDNYAIHYAESVKGRFTISRDDSKSTVYLQMNSLKTEDTAVYYCTTGTDYWGQGTTVTVSS VL: not shown | 3.86 ng/mL | –
huG14-122 (antibody, V domains shown) VH: EVQLVESGGGLVKPGGSLRLSCAASGLTFSNYWGNWVRQAPGKGLEWVALIRLYSDNYAIHYAESVKGRFTISRDDSKSTVYLQMNSLKTEDTAVYYCTTGTDYWGQGTTVTVSS VL: not shown | 7.12 ng/mL | –
huG14-128 (antibody, V domains shown) VH: EVQLVESGGGLVKPGGSLRLSCAASGLTFSNYWMNWVRQAPGKGLEWVALIRLYSDNYAIHYAESVKGRFTISRDDSKSTVYLQMNSLKTEDTAVYYCTTGTDNWGQGTTVTVSS VL: not shown | 4.12 ng/mL | –
huG14-118 (antibody, V domains shown) VH: EVQLVESGGGLVKPGGSLRLSCAASGLTFSNYWMNWVRQAPGKGLEWVALIRLYSDNYAIHYAESVKGRFTISRDDSKSTVYLQMNSLKTEDTAVYYCTTGTDYWGQGTTVTVSS VL: not shown | 4.83 ng/mL | –
huG14-127 (antibody, V domains shown) VH: EVQLVESGGGLVKPGGSLRLSCAASGLTFSNYWMNWVRQAPGKGLEWVALIRLYSDNYAIHYAESVKGRFTISRDDSKSTVYLQMNSLKTEDTAVYYCTTGTDNWGQGTTVTVSS VL: not shown | 2.97 ng/mL | –
huG14-120 (antibody, V domains shown) VH: EVQLVESGGGLVKPGGSLRLSCAASGLTFSNYWGNWVRQAPGKGLEWVALIRLYSDNYAIHYAESVKGRFTISRDDSKSTVYLQMNSLKTEDTAVYYCTTGTDYWGQGTTVTVSS VL: not shown | 6.23 ng/mL | –
huG14-119 (antibody, V domains shown) VH: EVQLVESGGGLVKPGGSLRLSCAASGLTFSNYWGNWVRQAPGKGLEWVALIRLYSDNYAIHYAESVKGRFTISRDDSKSTVYLQMNSLKTEDTAVYYCTTGTDYWGQGTTVTVSS VL: not shown | 8.93 ng/mL | –

Continued, values first:

EC50 [1] | EC50 [2] | Binder
3.87 ng/mL | – | huG14-137 (antibody, V domains shown) VH: EVQLVESGGGLVKPGGSLRLSCAASGLTFSNYWGNWVRQAPGKGLEWVALIRLYSDNYAIHYAESVKGRFTISRDDSKSTVYLQMNSLKTEDTAVYYCTTGTDNWGQGTTVTVSS VL: not shown
– | 6.28 ng/mL | huG14-225 (antibody, V domains shown) VH: EVQLVESGGGLVKPGGSLRLSCAASGLTFSNYWGNWVRQAPGKGLEWVALIRLYSDNYAIHYAESVKGRFTISRDDSKSTVYLQMNSLKTEDTAVYYCTTGTDNWGQGTTVTVSS VL: DVVMTQSPLSLPVTPGRPASISCKSSHSLLYSNGETYLNWLLQKPGQSPQRLIYLVSKLDSGVPDRFSGSGSGTDFTLKISRVEAEDLGVYYCIQGTYFPYTFGQGTKLEIK
5.66 ng/mL | – | huG14-133 (antibody, V domains shown) VH: EVQLVESGGGLVKPGGSLRLSCAASGLTFSNYWGNWVRQAPGKGLEWVALIRLYSDNYAIHYAESVKGRFTISRDDSKSTVYLQMNSLKTEDTAVYYCTTGTDNWGQGTTVTVSS VL: not shown
4.72 ng/mL | – | huG14-132 (antibody, V domains shown) VH: EVQLVESGGGLVKPGGSLRLSCAASGLTFSNYWMNWVRQAPGKGLEWVALIRLYSDNYAIHYAESVKGRFTISRDDSKSTVYLQMNSLKTEDTAVYYCTTGTDNWGQGTTVTVSS VL: not shown
– | 9.88 ng/mL | huG14-228 (antibody, V domains shown) VH: EVQLVESGGGLVKPGGSLRLSCAASGLTFSNYWGNWVRQAPGKGLEWVALIRLYSDNYAIHYAESVKGRFTISRDDSKSTVYLQMNSLKTEDTAVYYCTTGTDNWGQGTTVTVSS VL: DVVMTQSPLSLPVTPGRPASISCKSSQSLLYSNGKTYLNWLLQKPGQSPQRLIYLVSKLDSGVPDRFSGSGSGTDFTLKISRVEAEDLGVYYCIQGTYFPYTFGQGTKLEIK
– | 4.02 ng/mL | huG14-208 (antibody, V domains shown) VH: EVQLVESGGGLVKPGGSLRLSCAASGLTFSNYWMNWVRQAPGKGLEWVALIRLYSDNYAIHYAESVKGRFTISRDDSKSTVYLQMNSLKTEDTAVYYCTTGTDYWGQGTTVTVSS VL: DVVMTQSPLSLPVTPGRPASISCKSSQSLLYSNGRTYLNWLLQKPGQSPQRLIYLVSKLDSGVPDRFSGSGSGTDFTLKISRVEAEDLGVYYCIQGTYFPYTFGQGTKLEIK
– | 9.1 ng/mL | huG14-229 (antibody, V domains shown) VH: EVQLVESGGGLVKPGGSLRLSCAASGLTFSNYWGNWVRQAPGKGLEWVALIRLYSDNYAIHYAESVKGRFTISRDDSKSTVYLQMNSLKTEDTAVYYCTTGTDNWGQGTTVTVSS VL: DVVMTQSPLSLPVTPGRPASISCKSSQSLLYSNGRTYLNWLLQKPGQSPQRLIYLVSKLDSGVPDRFSGSGSGTDFTLKISRVEAEDLGVYYCIQGTYFPYTFGQGTKLEIK
3.28 ng/mL | – | huG14-138 (antibody, V domains shown) VH: EVQLVESGGGLVKPGGSLRLSCAASGLTFSNYWGNWVRQAPGKGLEWVALIRLYSDNYAIHYAESVKGRFTISRDDSKSTVYLQMNSLKTEDTAVYYCTTGTDNWGQGTTVTVSS VL: not shown
4.05 ng/mL | – | huG14-136 (antibody, V domains shown) VH: EVQLVESGGGLVKPGGSLRLSCAASGLTFSNYWGNWVRQAPGKGLEWVALIRLYSDNYAIHYAESVKGRFTISRDDSKSTVYLQMNSLKTEDTAVYYCTTGTDNWGQGTTVTVSS VL: not shown
– | 3.29 ng/mL | huG14-213 (antibody, V domains shown) VH: EVQLVESGGGLVKPGGSLRLSCAASGLTFSNYWGNWVRQAPGKGLEWVALIRLYSDNYAIHYAESVKGRFTISRDDSKSTVYLQMNSLKTEDTAVYYCTTGTDYWGQGTTVTVSS VL: DVVMTQSPLSLPVTPGRPASISCKSSHSLLYSNGRTYLNWLLQKPGQSPQRLIYLVSKLDSGVPDRFSGSGSGTDFTLKISRVEAEDLGVYYCVQGTYFPYTFGQGTKLEIK
3.17 ng/mL | – | huG14-139 (antibody, V domains shown) VH: EVQLVESGGGLVKPGGSLRLSCAASGLTFSNYWGNWVRQAPGKGLEWVALIRLYSDNYAIHYAESVKGRFTISRDDSKSTVYLQMNSLKTEDTAVYYCTTGTDNWGQGTTVTVSS VL: not shown
– | 6.28 ng/mL | huG14-205 (antibody, V domains shown) VH: EVQLVESGGGLVKPGGSLRLSCAASGLTFSNYWMNWVRQAPGKGLEWVALIRLYSDNYAIHYAESVKGRFTISRDDSKSTVYLQMNSLKTEDTAVYYCTTGTDYWGQGTTVTVSS VL: DVVMTQSPLSLPVTPGRPASISCKSSHSLLYSNGKTYLNWLLQKPGQSPQRLIYLVSKLDSGVPDRFSGSGSGTDFTLKISRVEAEDLGVYYCVQGTYFPYTFGQGTKLEIK
– | 5.69 ng/mL | huG14-219 (antibody, V domains shown) VH: EVQLVESGGGLVKPGGSLRLSCAASGLTFSNYWMNWVRQAPGKGLEWVALIRLYSDNYAIHYAESVKGRFTISRDDSKSTVYLQMNSLKTEDTAVYYCTTGTDNWGQGTTVTVSS VL: DVVMTQSPLSLPVTPGRPASISCKSSHSLLYSNGKTYLNWLLQKPGQSPQRLIYLVSKLDSGVPDRFSGSGSGTDFTLKISRVEAEDLGVYYCVQGTYFPYTFGQGTKLEIK
– | 4.13 ng/mL | huG14-209 (antibody, V domains shown) VH: EVQLVESGGGLVKPGGSLRLSCAASGLTFSNYWMNWVRQAPGKGLEWVALIRLYSDNYAIHYAESVKGRFTISRDDSKSTVYLQMNSLKTEDTAVYYCTTGTDYWGQGTTVTVSS VL: DVVMTQSPLSLPVTPGRPASISCKSSHSLLYSNGKTYLNWLLQKPGQSPQRLIYLVSKLDSGVPDRFSGSGSGTDFTLKISRVEAEDLGVYYCIQGTYFPYTFGQGTKLEIK

Reference: patent publication US20260347496 (published 2026)
